The values that follow come from PMC11626772.

Usually stoichiometry N stands for the number of molecules, sites or subunits per partner or assembly.

The test has as its target N-terminally truncated type IV pilin from P. aeruginosa strain P1 (ΔP1) (Pseudomonas aeruginosa strain P1). Kind of test: SEC-MALS; 23 mg ml^-1 ΔP1 with trigger solution (10 mM Tris, 300 mM NaCl, 1 mM EDTA, 1 mM DTT, 1 M MPD pH 7.4) at 10:1 (v:v) protein:hydrophobe, 96 h at room temperature with nutation; then SEC-MALS as for the untreated sample; monomer to dimer. On the technique in general: In gel filtration, larger molecules generally elute earlier.

For the substance “N-terminally truncated type IV pilin from P. aeruginosa strain P1 (ΔP1) (domain or fragment)”, the mass fraction of the dimer came to 9.1% and the stoichiometry N amounted to 2.
